Data on seven molecules can be found in US20140363422A1 (IMMUNOQURE, published 2014).

Like-named read-outs stand apart in the source and are kept apart here.

Assay [1] has as its target T1, human IL-22 (human, UniProt Q9GZX6 34-179).
T1 construct: also called IL-22(h); interleukin-22
T1 sequence (looked up): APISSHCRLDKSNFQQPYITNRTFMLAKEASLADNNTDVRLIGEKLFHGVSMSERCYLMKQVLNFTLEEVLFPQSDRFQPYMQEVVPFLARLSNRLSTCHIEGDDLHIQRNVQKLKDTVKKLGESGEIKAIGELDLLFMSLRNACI
Briefly: EC50 in summary table; assay not named, taken as binding ELISA.

Assay [2] concerns the target T1, human IL-22. Briefly: SPR (ProteOn XPR36), antibody captured by anti-human IgG, IL-22 injected at 100 to 1.23 nM, 1:1 Langmuir fit, mean of two experiments.
Procedure: (§1) Data was referenced using the interspot regions of the sensor chip.
(§2) For affinity determination of the antibodies of the present invention SPR measurements were performed using a ProteOn™ XPR36 instrument, according to the instructions of the manufacturer (BIO-RAD; Hercules Calif., USA). First, anti-human IgG was coupled simultaneously on 5 surfaces of the 6×6 interaction array of a GLC sensor chip by EDC/NHS chemistry, no antibody was sixth immobilized on the sixth surface, but the surface was treated with the same activation and deactivation protocol as the other five surfaces. The MABs (ligands) to be tested were injected afterwards into 6 channels of the chip (in the vertical direction) and simultaneously captured at very similar capture efficiency and percentage activity. […] Data was referenced using the interspot regions between the flow channels. […] Binding experiments were repeated twice and data is represented as a mean of two independent experiments.
Assay [3] has as its target T1, human IL-22. Briefly: SPR (ProteOn XPR36), antibody captured by anti-human IgG, IL-22 injected at 100 to 1.23 nM, 1:1 Langmuir fit, grouped.
Procedure: as §1, §2
For assay [4], the target named is T2, human IL-17F (human, UniProt Q96PD4 31-163).
T2 construct: Bought recombinant protein; also called IL-17F (h); interleukin-17F
T2 sequence (looked up): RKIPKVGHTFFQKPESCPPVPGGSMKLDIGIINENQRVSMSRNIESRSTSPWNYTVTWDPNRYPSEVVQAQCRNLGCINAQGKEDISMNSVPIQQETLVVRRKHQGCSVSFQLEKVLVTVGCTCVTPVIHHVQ
Briefly: SPR (ProteOn XPR36), antibody captured by anti-human IgG, IL-17F injected.

Assay [5] has as its target T2, human IL-17F. Briefly: EC50 in summary table; assay not named, taken as binding ELISA; IL-17F (F). (An ELISA detects its analyte on a solid surface through an enzyme-linked reagent.)
The target of the next assay is T3, human IL-17A (human, UniProt Q16552 24-155).
T3 construct: Bought recombinant protein; also called CTLA-8
T3 sequence (looked up): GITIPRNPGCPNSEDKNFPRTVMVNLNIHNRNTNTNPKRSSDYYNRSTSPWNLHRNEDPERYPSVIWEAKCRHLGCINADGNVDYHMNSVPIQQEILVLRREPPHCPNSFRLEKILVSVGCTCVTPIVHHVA
Briefly: EC50 in summary table; assay not named, taken as binding ELISA; IL-17A (A).

The target of assay [6] is T1, human IL-22. Briefly: SPR (ProteOn XPR36), antibody captured by anti-human IgG (L3), IL-22 injected at 100 to 1.23 nM and buffer.
Assay [7] concerns the target T4, IL-17A/IL-17F heterodimer (UniProt Q16552 24-155; Q96PD4 31-163).
T4 sequence (looked up) 1: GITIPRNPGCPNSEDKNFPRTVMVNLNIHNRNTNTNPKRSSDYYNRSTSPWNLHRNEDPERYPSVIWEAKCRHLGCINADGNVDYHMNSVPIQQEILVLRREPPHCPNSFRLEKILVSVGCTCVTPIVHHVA
T4 sequence (looked up) 2: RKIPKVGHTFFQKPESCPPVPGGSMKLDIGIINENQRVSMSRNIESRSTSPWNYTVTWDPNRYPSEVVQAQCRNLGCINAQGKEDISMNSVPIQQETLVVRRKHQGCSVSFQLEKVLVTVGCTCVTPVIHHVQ
Briefly: cell-based or functional assay.

In assay [8] the target is T2, human IL-17F. Briefly: cell-based or functional assay.
The target in assay [9] is T2, human IL-17F. Briefly: EC50 in summary table; assay not named, taken as binding ELISA.
For assay [10], the target named is T1, human IL-22. Briefly: SPR (ProteOn XPR36), antibody captured by anti-human IgG (L2), IL-22 injected at 100 to 1.23 nM and buffer.
The target in assay [11] is T2, human IL-17F. Briefly: ELISA, titration of antibody 9A2 on recombinant human IL17F.
The target of assay [12] is T1, human IL-22. Briefly: SPR (ProteOn XPR36), antibody captured by anti-human IgG (L1), IL-22 injected at 100 to 1.23 nM and buffer.
Assay [13] addresses T1, human IL-22. Briefly: EC50 in summary table; assay not named, taken as binding ELISA; human IL-22 (h).
The next assay deals with T5, mouse IL-22 (mouse, UniProt Q9JJY9 34-179).
T5 construct: also called murine IL-22; IL-22(m)
T5 sequence (looked up): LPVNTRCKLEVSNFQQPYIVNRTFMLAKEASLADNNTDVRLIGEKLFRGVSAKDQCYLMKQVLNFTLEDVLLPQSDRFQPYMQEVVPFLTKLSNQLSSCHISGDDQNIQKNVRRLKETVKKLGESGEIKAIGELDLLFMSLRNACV
Briefly: EC50 in summary table; assay not named, taken as binding ELISA; murine IL-22 (m).

Assay [14] has as its target T1, human IL-22. Briefly: cell-based or functional assay.
For assay [15], the target named is T1, human IL-22. Briefly: SPR (ProteOn XPR36), antibody captured by anti-human IgG, IL-22 injected at 100 to 1.23 nM, 1:1 Langmuir fit, grouped. This is another data set of the same source.
Procedure: as §1, §2

B1: IL-22 specific antibody 35G11 (antibody, human IgG4, lambda, V domains shown)
VH: QVQLVQSGSELRRPGASVNISCKASGYGFNTYAMNWVRQAPGQGPEWMGWINTDTGDPTYAQGFTGRFAFFLDTSASTAFLQITRLTGEDTAVYFCARTRNNWNGVYYHYSGLDVWGQGTTVTVSS
VL: QSVLTQPPSASGTPGQTVTISCSGSSPNLGDNYVYWYHQVPGTAPKLLIFRNTQRPSGVTDRFSGSKYGTSASLAISDLRSDDEGDFYCASWDDRLSRLVFGGGTKLTVLG
notes: also called a-IL-22-35G11; aIL-22 35G11
The EC50 is the concentration at which the effect is half-maximal. Higher therefore signals a need for much substance. In general, Kd refers to a measure of binding affinity in units of concentration. Lower therefore signals tighter binding. For orientation: koff means the rate constant with which the complex falls apart. A high value points to fast dissociation. What is called kon is the second-order rate constant of association. A high value points to fast association. The molecule B1 returned an EC50 in the assay with human IL-22 [1] of 0.007 µg/mL. Besides, the Kd with human IL-22 [2] stood at 0.039 nM. Moreover, in the assay with human IL-22 [3], the Kd worked out at 0.0457 nM, the koff came out at 8.09e-05 s⁻¹ and the kon amounted to 1.77e+06 M⁻¹ s⁻¹. Further, the binding result with human IL-17F [4] is recorded as “no binding (tested: 100 nM to 1.23 nM)”.

B2: IL-17F and IL-17A specific antibody 17E3 (antibody, human IgG1, kappa, V domains shown)
VH: QVQLVQSGAEVAKPGASVRLSCKASGFSFIKYYMHWVRQAPGQGLEWMGVIEPTGGGTSSAQKFRDRVTLSRDTSTATVHLEVSRLTLEDTGIYFCVRDSIYCKHGTCHRTVIDAFDIWGQGTAVTVSS
VL: DIQMTQSPSSLSASVGDRVTITCRSSQDIKNDLAWYQQKPGKAPERLIYAASNLQSGVPSRFSGSGSGTEFSLTISGLQPEDFATYYCLQHNSYPLLTFGGGTKVEIKR
notes: also called a-IL17-17E3
With B2, the concentration giving a half-maximal response (EC50) in the assay with human IL-17F [5] was 0.002 µg/mL; with human IL-17A, 0.824 µg/mL. In addition, in the assay with human IL-22 [6], the binding result is “no binding (tested: 100 nM)”. Also, the kon in the assay with human IL-17F [4] is around 300000 M⁻¹ s⁻¹. The “IC50 Neutralization (ng/ml); GRO-alpha production by NCTC 2544 keratinocytes” value (from here on “IC50 Neutralization … by NCTC 2544 keratinocytes”) in [7] came out at 12 ng/mL; with human IL-17F [8], 15 ng/mL.

B3: IL-17F specific antibody 9A2 (antibody, human IgG1, kappa, V domains shown)
VH: EVQLEESGGGLVQPGGSLRLSCAASGFPFSNYEMNWVRQAPGKGLEWISYISVSGGPAHYADSVKGRFTISRDDATKSLFLQMNRLRADDTAVYYCVRREYVTGRNYNYYPYMDVWGTGTTVTVSP
VL: DIQMTQSPSSLSASVGDRVTITCRASQTISDYLNWYQHKPGEAPKLLIYSASTLQRGVPSRFSGSGSGTDFVFTISSLQSDDFATYYCQQTSSTALTFGGGTKVEVKR
notes: also called a-IL17-9A2
Broadly, the EC50 (read off the curve) is the midpoint of the concentration-response curve. Regarding B3, a half-maximal response with human IL-17F [9] (EC50) required 0.003 µg/mL. For the same molecule, the binding result with human IL-22 [10] is “no binding (tested: 100 nM)”. For the same molecule, in the assay with human IL-17F [11], the “EC50 (read off the curve)” value was around 0.02 µg/mL. Besides, in the assay with human IL-17F [4], the kon was around 800000 M⁻¹ s⁻¹. Besides, the “IC50 Neutralization … by NCTC 2544 keratinocytes” value with human IL-17F [8] worked out at 45 ng/mL.

B4: IL-17F specific antibody 24D3 (antibody, human IgG1, lambda, V domains shown)
VH: EVKLEESGGDLVKPGGSLRLSCVASGFTFGTAWMSWVRQAPGKGLEWVGRISNKDTGGRIDYAAPVRGRFAISRDDSKATLFLQMNSLKTEDTAVYFCTTNFYDVLTGDHVDYWGQGTVVVVSS
VL: SYELTQPPSVSVSPGETARIPCSGETLPKKLVYWYQQKPGQAPVLMIYKDSERPSRISERFSGSNSGTMASLTISGVQAEDEADYYCQTSDSSGVVFGGGTKLTVLG
notes: also called a-IL17-24D3; aIL-17 24D3
Turning to B4, the midpoint of the response in the assay with human IL-17F [9], the EC50, lay at 0.002 µg/mL. Also, in the assay with human IL-22 [12], the binding result is recorded as “no binding (tested: 100 nM)”. This molecule gave a kon with human IL-17F [4] of around 600000 M⁻¹ s⁻¹. The “IC50 Neutralization … by NCTC 2544 keratinocytes” value in assay [7] is 6 to 14 ng/mL; with human IL-17F [8] it was 12 to 22 ng/mL.

B5: IL-22 specific antibody 41D11 (antibody, human IgG1, lambda, V domains shown)
VH: QVQLHESGPGLVKPSETLSVTCSLSGGSISSSSHLWAWIRQPPEKGLEYIGRIHYRGSVSYNPSLKSRAAISVDTAKNQFSLTLSAVTAADTSFYYCARLDMGAIDKWGQGTLVIVSS
V domain: QPVLTQSPSASASLGASIKLTCTLSSGHSNYDIAWHQQQSGKGPRFLMRVNNGGSHNKGDGIPDRFSGSSSGAERYLTISSLQSEDEADYYCQTWGTGTHVFGTG
notes: also called a-IL-22-41D11
With B5, the EC50 with human IL-22 [13] turned out to be 0.005 µg/mL; with mouse IL-22 it was 0.06 µg/mL. In addition, in the assay with human IL-22 [14], the “IC50 Neutralization (ng/ml); IL-10 production by Colo205 cells” value is 38 ng/mL.

B6: IL-22 specific antibody 51G4 (antibody, human IgG2, lambda, V domains shown)
VH: EVQLVQSGAEVKKPGASVKVSCKTSGYKFALYDIHWVRQAPGQGLEWMGWINAANGDTEYSQKFEGRVTITRDTSATTVYMELNSLTYGDTAVYYCAREEGLYNWFDPWGQGTLVTVSS
VL: SYELTQDPAVSVALGQTVRITCQGDSLRIYYANWYQQKPGQAPVLVIYGKSNRPSGIPDRFSASSSGNTASLTITGAQAEDEADYYCNSRDSSDKHPVPFGGGTKLTVLS
notes: also called a-IL-22-51G4
B6 registered an EC50 with human IL-22 [1] of 0.067 to 0.148 µg/mL.

B7: IL-22 specific antibody 30G1 (antibody, human IgG1, kappa, V domains shown)
VH: EVQLLESGGGLVQPGGSLRLSCAASGFTFSTYAMSWVRQAPGKGLEWVSTITSSGGATYHADSVKGRLTISRDNSKNTLYLEMNSLRVEDTAVYYCAKDWGRTVYAVIKDLDIWGQGTLVTVSS
VL: EIVMTQSPAILSVSPGERATLSCRASQSVSNYLAWFQQKPGQAPRLLIYDTSKRATGTPARFSGSGSGTDFTLTISSLEPEDFAVYFCQQRSDWPQYTFGQGTKLEIKR
notes: also called aIL-22 30G1
In turn, B7 returned a 50% effective concentration (EC50) with human IL-22 [13] of 0.003 µg/mL. Further, in the assay with human IL-22 [2], the Kd stood at 0.0365 nM. The molecule also registered an EC50 with mouse IL-22 of 0.015 µg/mL. In the assay with human IL-22 [15], the Kd was determined as 0.0352 nM, the koff came out at 1.55e-05 s⁻¹ and the kon came out at 441000 M⁻¹ s⁻¹. In addition, in the assay with human IL-17F [4], the binding result is recorded as “no binding (tested: 100 nM to 1.23 nM)”.
